The values below come from publication PMC11035981, “Activity assays of NnlA homologs suggest the natural product N-nitroglycine is degraded by diverse bacteria” (Beilstein Journal of Organic Chemistry, 2024).

As a reminder, the stoichiometry N is the number of molecules, sites or subunits per partner or assembly.

Common to all, as to assay: SEC; analytical size exclusion, Superdex 200 Increase 10/300 GL, mobile phase 100 mM tricine, 100 mM NaCl, pH 7.5; masses from BioRad protein standards; self-association of each purified NnlA
Background: Size exclusion chromatography separates by hydrodynamic size, large species first.

In data set [1] the target is N-nitroglycine lyase A (NnlA) from Variovorax sp. strain JS1663 (Variovorax sp. strain JS1663).
Data set [2] has as its target NnlA homolog from Mycobacterium sp. 1465703.0 (Mycobacterium sp. 1465703.0).
Data set [3] addresses NnlA homolog from Pseudonocardia spinosispora DSM 44797 (Pseudonocardia spinosispora DSM 44797).
Data set [4] has as its target NnlA homolog from Pseudovibrio denitrificans JCM 1230 (Pseudovibrio denitrificans JCM 1230).
Data set [5] deals with the molecule itself.

For the molecule “N-nitroglycine lyase A (NnlA) from Variovorax sp. strain JS1663 (enzyme)”, in data set [1], the stoichiometry N was 2.
Regarding “NnlA homolog from Mycobacterium sp. 1465703.0 (enzyme)”, the stoichiometry N in data set [2] is 2.
The molecule “NnlA homolog from Pseudonocardia spinosispora DSM 44797 (enzyme)” displayed a stoichiometry N in data set [3] of 2.
Turning to “NnlA homolog from Pseudovibrio denitrificans JCM 1230 (enzyme)”, the stoichiometry N in data set [4] stood at 2.

B1: NnlA homolog from Microbispora rosea subsp. nonnitritogenes strain NRRL B-2631 (enzyme)
chain: MTSQAEPAEAAESRIATDWGLDEWADRLIDQAGVGVTILNRHGTVMYYNKWASEHLDRRPEYIGNDVRKRHRRAVTNPRLDAMLKLFEDGRVEPVRYVARPYGKTTILVTVSPIRVDGELVGFSQIVLLKDEVQELCARFDESGRESFEREMLPNGPPAT
Take B1: in data set [5], the “stoichiometry N” value was found to be 2.
